Publication PMC7292828, “Mechanical unfolding of a knotted protein unveils the kinetic and thermodynamic consequences of threading a polypeptide chain” (Scientific Reports, 2020)
Substitutions are numbered along the chain they refer to. Names may count otherwise.

B1: MJ0366 from Methanocaldococcus jannaschii, wild type (natural protein, UniProt Q57812 1-92, looked up)
chain: MPLVGFMKEKKRATFYLYKNIDGRKLRYLLHKLENVENVDIDTLRRAIEAEKKYKRSITLTEEEEVIIQRLGKSANLLLNCELVKLDEGERA
notes: MJ0366, Methanocaldococcus jannaschii, knotted protein of 92 residues; If it was, ENLYFQ would remain at the C-terminus; also called wild type protein
B2: MJ0366 construct K19C/K73C in the background of C81A (natural protein, Methanocaldococcus jannaschii, UniProt Q57812 1-92, looked up)
chain: B1 chain with K19C, K73C, C81A
notes: MJ0366, Methanocaldococcus jannaschii, 92 residues; double cysteine mutant with C81A; A TEV site ENLYFQG stands between the C-terminus and the His tag; also called F19C/K73C (as printed once in the results)
B3: MJ0366 construct F6C/G89C in the background of C81A (natural protein, Methanocaldococcus jannaschii, UniProt Q57812 1-92, looked up)
chain: B1 chain with F6C, C81A, G89C
notes: MJ0366, Methanocaldococcus jannaschii, 92 residues; double cysteine mutant with C81A; A TEV site ENLYFQG stands between the C-terminus and the His tag; also called K6C/K89C (as printed once in the discussion)
B4: MJ0366 construct F6C/K73C in the background of C81A (natural protein, Methanocaldococcus jannaschii, UniProt Q57812 1-92, looked up)
chain: B1 chain with F6C, K73C, C81A
notes: MJ0366, Methanocaldococcus jannaschii, 92 residues; double cysteine mutant with C81A; A TEV site ENLYFQG stands between the C-terminus and the His tag

Target: the molecule itself
Assay: SEC; size exclusion chromatography on a Superdex S75 column (GE Healthcare); dimeric state in solution

Stoichiometry N, 2:
B1
B2
B3
B4
